From US20230037682A1 come the findings set out here.

The target in the experiment is CD3 peptide. Nature of the experiment: SPR (Biacore); 25 °C. (In general: In SPR one partner is held on a chip, and binding of the other changes the refractive index at the surface.)

As for J6MO_SP34 (sp34), the Kd (as a rule, a measure of binding affinity in units of concentration) was found to be 0.0139 µM.
